Measurements taken from patent publication US20120034215A1 (Daiichi Sankyo, published 2012).

T1: recombinant MST1R-Fc fusion protein (containing 25-571 amino acid sequence of human MST1R, R&D) (human, UniProt Q04912 25-571)
T1 construct: Bought from R&D systems; also called immobilized recombinant human MST1R; not shown: Fc part of the bought fusion protein (R&D systems)
T1 chain: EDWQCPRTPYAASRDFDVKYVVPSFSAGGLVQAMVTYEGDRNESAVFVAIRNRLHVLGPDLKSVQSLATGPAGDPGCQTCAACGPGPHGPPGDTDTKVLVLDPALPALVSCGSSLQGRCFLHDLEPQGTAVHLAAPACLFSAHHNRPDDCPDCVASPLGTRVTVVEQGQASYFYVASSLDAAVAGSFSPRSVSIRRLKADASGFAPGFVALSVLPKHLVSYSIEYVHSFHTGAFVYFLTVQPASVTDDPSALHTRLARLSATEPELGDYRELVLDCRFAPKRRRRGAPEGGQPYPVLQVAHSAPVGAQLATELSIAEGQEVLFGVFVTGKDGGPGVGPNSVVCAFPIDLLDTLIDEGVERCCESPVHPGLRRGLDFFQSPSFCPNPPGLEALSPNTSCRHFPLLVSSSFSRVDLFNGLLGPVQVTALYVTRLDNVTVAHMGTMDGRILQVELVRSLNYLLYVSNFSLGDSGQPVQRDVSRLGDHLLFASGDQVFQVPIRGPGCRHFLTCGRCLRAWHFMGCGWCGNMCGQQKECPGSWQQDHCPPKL

T2: cynomolgus monkey MST1R with N-terminal Flag tag, expressed on HEK293T cells (cynomolgus monkey, UniProt Q04912 27-1400 (human entry))
T2 construct: ORF cloned excluding the signal peptide region; also called cynomolgus MST1R; not shown: N-terminal Flag tag from vector pFLAG-myc-CMV-19 (Sigma)
T2 chain: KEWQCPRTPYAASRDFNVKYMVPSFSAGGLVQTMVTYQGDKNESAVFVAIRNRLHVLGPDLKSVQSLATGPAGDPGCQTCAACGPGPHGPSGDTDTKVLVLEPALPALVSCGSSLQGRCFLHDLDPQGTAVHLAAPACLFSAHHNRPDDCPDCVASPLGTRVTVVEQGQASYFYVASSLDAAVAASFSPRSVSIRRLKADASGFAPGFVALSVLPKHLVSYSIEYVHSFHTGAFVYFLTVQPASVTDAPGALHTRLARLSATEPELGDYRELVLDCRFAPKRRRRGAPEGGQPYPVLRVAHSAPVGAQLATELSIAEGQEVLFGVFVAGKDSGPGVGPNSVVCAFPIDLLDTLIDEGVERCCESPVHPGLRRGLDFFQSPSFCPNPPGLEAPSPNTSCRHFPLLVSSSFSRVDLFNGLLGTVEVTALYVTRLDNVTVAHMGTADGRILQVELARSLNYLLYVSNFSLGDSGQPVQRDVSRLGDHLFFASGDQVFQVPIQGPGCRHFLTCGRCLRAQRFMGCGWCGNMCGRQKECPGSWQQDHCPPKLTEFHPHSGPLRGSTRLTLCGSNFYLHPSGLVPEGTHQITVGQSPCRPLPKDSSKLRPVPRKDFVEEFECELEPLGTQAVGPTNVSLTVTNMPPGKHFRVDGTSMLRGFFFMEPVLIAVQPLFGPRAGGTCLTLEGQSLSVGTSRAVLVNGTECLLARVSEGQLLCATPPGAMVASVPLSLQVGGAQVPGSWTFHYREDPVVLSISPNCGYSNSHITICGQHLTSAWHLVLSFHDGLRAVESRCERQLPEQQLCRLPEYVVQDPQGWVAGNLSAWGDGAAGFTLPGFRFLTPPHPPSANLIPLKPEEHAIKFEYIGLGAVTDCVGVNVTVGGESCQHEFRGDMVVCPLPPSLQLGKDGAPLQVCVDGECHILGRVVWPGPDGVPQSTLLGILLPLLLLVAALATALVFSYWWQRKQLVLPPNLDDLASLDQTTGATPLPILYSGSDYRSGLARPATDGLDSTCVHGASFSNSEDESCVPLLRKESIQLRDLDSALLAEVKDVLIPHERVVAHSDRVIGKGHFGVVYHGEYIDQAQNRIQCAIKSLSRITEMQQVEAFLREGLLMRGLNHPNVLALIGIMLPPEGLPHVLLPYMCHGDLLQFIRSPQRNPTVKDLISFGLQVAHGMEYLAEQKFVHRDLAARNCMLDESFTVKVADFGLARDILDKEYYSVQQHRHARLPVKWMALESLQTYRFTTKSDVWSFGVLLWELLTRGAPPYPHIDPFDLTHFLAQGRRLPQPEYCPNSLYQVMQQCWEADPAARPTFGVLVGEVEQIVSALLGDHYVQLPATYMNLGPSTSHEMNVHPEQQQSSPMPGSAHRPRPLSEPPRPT


Columns and labels:
[1] = target: T1, recombinant MST1R-Fc fusion protein …; test: SPR (Biacore 3000), Fab over directly immobilized MST1R-Fc
Description: With reference to Table 1, the affinity of MOR X antibodies was measured by surface plasmon resonance (Biacore) on immobilized recombinant human MST1R. The Biacore studies were performed on directly immobilized antigen.
The kinetic constants kₒₙ and koff were determined with serial dilutions of the respective Fab binding to covalently immobilized MST1R-Fc fusion protein (R&D systems) using the BIAcore 3000 instrument (Biacore). For covalent antigen immobilization standard EDC-NHS amine coupling chemistry was used. For direct coupling of MST1R-Fc fusion protein CM5 sensor chips (Biacore) were coated with ˜600-700 RU in 10 mM acetate buffer, pH 4.5. For the reference flow cell a respective amount of HSA (human serum albumin) was used. Kinetic measurements were done in PBS (136 mM NaCl, 2.7 mM KCl, 10 mM Na₂HPO₄, 1.76 mM KH₂PO₄ pH 7.4) at a flow rate of 20 μl/min using Fab concentration range from 15.6-500 nM. Injection time for each concentration was 1 min, followed by 3 min dissociation phase. For regeneration […] 10 mM HCl was used. All sensograms were globally fitted using BIA evaluation software 3.2 (Biacore).

[2] = target: T1, recombinant MST1R-Fc fusion protein …; test: Solution Equilibrium Titration (SET, ECL based), Fab
[3] = target: T1, recombinant MST1R-Fc fusion protein …; test: Solution Equilibrium Titration (SET, ECL based), Fab; SET (Fab), in solution; not Biacore on immobilized antigen
[4] = target: T2, cynomolgus monkey MST1R with N-terminal …; test: flow cytometry on transfected HEK293T cells, 2 ug/ml IgG1
Description: Cells (5×10⁵ cells/well) were incubated with Fab or IgG antibodies at the indicated concentrations in 50 μl FACS buffer (PBS, 5% FCS) for 60 min at 4° C. in round bottom 96-well culture plates (Corning). Cells were washed twice and then incubated with Fluorescein Isothiocyanate (FITC) conjugated detection antibody for 30 min at 4° C. Cells were washed again, resuspended in 0.3 ml FACS buffer and then analyzed by flow cytometry in a Cytomics FC500 (Beckman Coulter, Inc.). Data were analysed via FlowJo software (Tomy digital biology Co., Ltd.). Polyclonal goat anti-hMSP R IgG (R&D systems) or anti-FLAG M2 antibody (Sigma) was used as a positive control and MOR03207 (anti-lysozyme) antibody was used as a negative control.
FACS-analysis of MST1R ortholog-expressing cells: Human MST1R (cDNA nucleotide sequence is shown as GenBank Accession No: NM_{—}002447.2), cynomolgus monkey MST1R and mouse MST1R (cDNA nucleotide sequence is shown as GeneBank Accession No: NM_{—}009074.1) expression vector containing N-terminal Flag tag (pFLAG-myc-CMV-19, Sigma) were constructed. cDNA encoding cynomolgus monkey MST1R was amplified by PCR using cynomolgus monkey stomach cDNA as a template with forward and reverse primers having nucleotide sequences of SEQ ID NO: 34 and 35, respectively. By sequencing analysis of PCR product, the cynomolgus MST1R ORF nucleotide sequence was identified as shown in SEQ ID NO: 36. The corresponding amino acid sequence was shown in SEQ ID NO: 37. Then human, cynomolgus monkey and mouse MST1R ORF cDNA, excluding signal peptide regions, were amplified using respective forward and reverse primers having nucleotide sequences of SEQ ID NO: 38 and 39 (human), 40 and 41 (cynomolgus monkey), and 42 and 43 (mouse) with appropriate cloning sites and then cloned into pFLAG-myc-CMV-19. An amplified human MST1R fragment encodes amino acids corresponding to GenBank Accession No: NP_{—}002438.2 (SEQ ID NO: 45). A Mouse MST1R fragment encodes amino acids corresponding to GenBank Accession No: NP_{—}033100.1 (SEQ ID NO: 47) except for those amino acid differences at positions: 688 (Leu to Pro), 713 (Ile to Val), 714 (Ala to Gly) and 719 (Ala to Val). These expression vectors were transfected into HEK293T cells. For FACS-analysis, cells were incubated with 2 μg/ml primary antibodies followed by incubation with FITC-labeled secondary antibody as described above.

[5] = target: MST1R on cells (293alpha cells transfected with pcDNA-DEST40 MST1R; endogenous on PC3, T-47D and BxPC-3 cells) (human, UniProt Q04912 25-1400); test: cell-based or functional assay

Row | Kd [1] | Kd [2] | Kd [3] | binding result [4] | Reporter assay IC50 (ng/ml); Elk1 luciferase reporter gene assay in the presence of 100 ng/ml MSP [5] | Binder
1 | 0.07 nM | 0.02 nM |  |  |  | MOR07923 Fab (Fab, V domains shown, carries two C-terminal tags (FLAG and Strep-tag II); also called Fab MOR07923) VH: QVQLVESGGGLVQPGGSLRLSCAASGFTFNSYSMSWVRQAPGKGLEWVSYISSRSSTTYYADSVKGRFTISRDNSKNTLYLQMNSLRAEDTAVYYCARGYFHGMDYWGQGTLVTVSS VL: DIVLTQSPATLSLSPGERATLSCRASQSVSFDYLGWYQQKPGQAPRLLIYGASNRATGVPARFSGSGSGTDFTLTISSLEPEDFATYYCFQYLIVPFTFGQGTKVEIKR
2 | 0.2 nM | 0.03 nM |  |  |  | MOR07924 Fab (Fab, V domains shown, carries two C-terminal tags (FLAG and Strep-tag II); also called Fab MOR07924) VH: QVQLVESGGGLVQPGGSLRLSCAASGFTFNSYSMSWVRQAPGKGLEWVSYISSRSSTTYYADSVKGRFTISRDNSKNTLYLQMNSLRAEDTAVYYCARGYFHGMDYWGQGTLVTVSS VL: DIVLTQSPATLSLSPGERATLSCRASQSVSFDYLGWYQQKPGQAPRLLIYGASNRATGVPARFSGSGSGTDFTLTISSLEPEDFATYYCQQYNINPFTFGQGTKVEIKR
3 | 0.8 nM |  | 0.25 nM |  |  | MOR07692 Fab (Fab, V domains shown, carries two C-terminal tags (FLAG and Strep-tag II); also called Fab MOR07692) VH: QVQLVESGGGLVQPGGSLRLSCAASGFTFNSYSMSWVRQAPGKGLEWVSYISSRSSTTYYADSVKGRFTISRDNSKNTLYLQMNSLRAEDTAVYYCARGYFHGMDYWGQGTLVTVSS VL: DIVLTQSPATLSLSPGERATLSCRASQSVSFDYLGWYQQKPGQAPRLLIYGASNRATGVPARFSGSGSGTDFTLTISSLEPEDFATYYCQQYYNMPYTFGQGTKVEIKR
4 | 0.13 nM | 0.04 nM |  |  |  | MOR07926 Fab (Fab, V domains shown, carries two C-terminal tags (FLAG and Strep-tag II); also called Fab MOR07926) VH: QVQLVESGGGLVQPGGSLRLSCAASGFTFNSYSMSWVRQAPGKGLEWVSYISSRSSTTYYADSVKGRFTISRDNSKNTLYLQMNSLRAEDTAVYYCARGYFHGMDYWGQGTLVTVSS VL: DIVLTQSPATLSLSPGERATLSCRASQSVSFDYLGWYQQKPGQAPRLLIYGASNRATGVPARFSGSGSGTDFTLTISSLEPEDFATYYCFQALIMPFTFGQGTKVEIKR
5 | 0.02 nM | 0.01 nM |  |  |  | MOR07925 Fab (Fab, V domains shown, carries two C-terminal tags (FLAG and Strep-tag II); also called Fab MOR07925) VH: QVQLVESGGGLVQPGGSLRLSCAASGFTFNSYSMSWVRQAPGKGLEWVSYISSRSSTTYYADSVKGRFTISRDNSKNTLYLQMNSLRAEDTAVYYCARGYFHGMDYWGQGTLVTVSS VL: DIVLTQSPATLSLSPGERATLSCRASQSVSFDYLGWYQQKPGQAPRLLIYGASNRATGVPARFSGSGSGTDFTLTISSLEPEDFATYYCLQYFNPPHTFGQGTKVEIKR
6 |  |  |  | binds | 87.6 ng/mL | MOR07919 (human IgG1) (antibody, V domains shown) VH: QVQLVQSGAEVKKPGESLKISCKGSGYSFTNYWISWVRQMPGKGLEWMGFIYPDDSYTRYSPSFQGQVTISADKSISTAYLQWSSLKASDTAMYYCARFSYRHYLDMDDHWGQGTLVTVSS VL: DIELTQPPSVSVAPGQTARISCSGDSLGSKYVHWYQQKPGQAPVLVIYRDNKRPSGIPERFSGSNSGNTATLTISGTQAEDEADYYCQSYDATEFTYVFGGGTKLTVLG
7 | 0.98 nM | 0.27 nM |  |  |  | MOR07919 Fab (Fab, V domains shown, carries two C-terminal tags (FLAG and Strep-tag II); also called Fab MOR07919) VH: QVQLVQSGAEVKKPGESLKISCKGSGYSFTNYWISWVRQMPGKGLEWMGFIYPDDSYTRYSPSFQGQVTISADKSISTAYLQWSSLKASDTAMYYCARFSYRHYLDMDDHWGQGTLVTVSS VL: DIELTQPPSVSVAPGQTARISCSGDSLGSKYVHWYQQKPGQAPVLVIYRDNKRPSGIPERFSGSNSGNTATLTISGTQAEDEADYYCQSYDATEFTYVFGGGTKLTVLG
